From US20240150417A1 (CELLEMEDY, published 2024)

B1: Ein-gp100-huHF (other)
chain: MHHHHHHEFTTASTSQVRQNYHQDSEAAINRQINLELYASYVYLSMSYYFDRDDVALKNFAKYFLHQSHEEREHAEKLMKLQNQRGGRIFLQDIKKPDCDDWESGLNAMECALHLEKNVNQSLLELHKLATDKNDPHLCDFIETHYLNEQVKAIKELGDHVTNLRKMGAPESGLAEYLFDKHKVPRNQDWLTLGDSDNES
notes: Self-assembled 24-mer; built from the site; also called gp100-huHF, TSA insertion site Ein (the middle of E helix)
B2: Din-gp100-huHF (other)
chain: MHHHHHHEFTTASTSQVRQNYHQDSEAAINRQINLELYASYVYLSMSYYFDRDDVALKNFAKYFLHQSHEEREHAEKLMKLQNQRGGRIFLQDIKKPDCDDWESGLNAMECALHLEKNVNQSLLELHKLATDKNDPHLCDFIETHYLNEQVKAIKELGDHVTNLRKVPRNQDWLKMGAPESGLAEYLFDKHTLGDSDNES
modifications: One monomer given; 24 monomers self-assemble. His tag carried RED-tris-NTA dye in MST.
notes: Self-assembled 24-mer; built from the site; also called gp100-huHF, TSA insertion site Din (the middle of D helix)

Target: T1, human transferrin receptor (human, UniProt P02786 89-760, limits assumed)
T1 construct: also called TfR Human; transferrin receptor 1
T1 sequence (P02786 89-760 limits assumed): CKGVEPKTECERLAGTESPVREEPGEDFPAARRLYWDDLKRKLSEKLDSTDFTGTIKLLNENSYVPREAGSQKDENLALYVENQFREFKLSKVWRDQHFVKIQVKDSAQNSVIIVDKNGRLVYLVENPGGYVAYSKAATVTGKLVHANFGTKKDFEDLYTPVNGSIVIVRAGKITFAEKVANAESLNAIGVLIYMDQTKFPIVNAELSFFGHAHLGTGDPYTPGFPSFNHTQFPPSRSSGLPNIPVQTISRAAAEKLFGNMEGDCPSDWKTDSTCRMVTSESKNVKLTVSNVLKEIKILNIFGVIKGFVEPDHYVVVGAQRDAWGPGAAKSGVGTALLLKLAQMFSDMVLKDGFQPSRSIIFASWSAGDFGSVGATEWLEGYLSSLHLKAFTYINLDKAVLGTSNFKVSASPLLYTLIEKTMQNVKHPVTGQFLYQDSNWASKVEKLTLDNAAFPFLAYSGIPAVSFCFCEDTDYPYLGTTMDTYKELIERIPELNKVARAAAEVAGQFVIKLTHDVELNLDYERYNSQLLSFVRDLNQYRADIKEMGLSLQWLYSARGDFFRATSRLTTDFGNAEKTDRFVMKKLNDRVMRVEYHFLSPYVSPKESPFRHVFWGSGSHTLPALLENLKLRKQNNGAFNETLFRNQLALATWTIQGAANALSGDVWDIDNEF
Assay: MST (Monolith NT.115), dye-labelled protein, receptor titrated
Method: First, 100 μl of dye that specifically binds to a hexa-His tag (RED-tris-NTA 2nd Generation Dye) was prepared at a concentration of 50 nM, along with 100 μl of the produced protein at a concentration of 200 nM, followed by mixing the same and incubating at room temperature for 30 minutes. The incubated product was centrifuged at 13000 rpm for 10 minutes at 4° C. by a centrifuge, thus to separate the supernatant and obtain a dye-labeled protein.
Then, 25 μl of 9.65 μM transferrin receptor was added to the 1st PCR tube; 10 μl of PBS-T (PBS+0.5% tween 20) buffer was added to 2nd to 16th PCR tubes; 10 μl of transferrin in the 1st PCR tube was transferred to the 2nd PCR tube; and 10 μl was again transferred from the 2nd PCR tube to the 3rd PCR tube. Likewise, this procedure was continued up to the 16th tube thus to perform ½ dilution in a sequential order so that each of the 2nd to 16th PCR tubes becomes 20 μl.
Thereafter, 10 μl of the dye-labeled protein was added to each PCR tube, and the reaction was performed at room temperature for 1 hour.

Binder	Kd
B1	6.28 nM
B2	29.3 nM
